B1: 1F10: murine anti-human EpCAM monoclonal antibody (IgG1, λ1), hybridoma m338-1F10.3; VH SEQ ID NO:11, VL SEQ ID NO:13 (antibody, listed as Mus musculus, V domains shown)
VH: EVKLLESGGGLVQPGGSLKLSCAASGFDFSRYWMSWVRQAPGKGLEWIGEINPDSSTMNYTPSLKDKFIISRDNAKNTLYLQMSKVRSEDTALYYCARGAYAMDYWGQGTSVTVSS
VL: QAVVTQESALTTSPGETVTLTCRSSTGAVTTSNNANWVQEKPDHLFTGLIGATNNRAPGVPARFSGSLIGDKAALTITGAQTEDEAIYFCALWYINHWVFGGGTKLTVLG
B2: 1G10: murine anti-human EpCAM monoclonal antibody (IgG1, K), hybridoma m290-1G10; VH SEQ ID NO:7, VL SEQ ID NO:9 (antibody, listed as Mus musculus, V domains shown)
VH: QIQLVQSGPELKKPGETVKISCKASGYTFTNYGMNWVKQAPGKGFKWMGWINTYTGEPTYADDFKGRFAFSLETSASTAYLQINNLQNEDMATYFCARWGYDFDYWGQGTTLTVSS
VL: QIVLTQSPAIMSSSPGEKVTMTCSASSSISYMNWYQQKPGTSPKRWIYDTSKLASGVPARFSGSGSGTSYSLTISSMEAEDAATYYCHQRSSYPYTFGGGTKLEIKR

Legend:
[1] = test system: Breast cancer T-47D cells; assay: Antibody cytotoxicity assay (Annexin V + PI), T-47D; format: cell-based; conditions: for Induction of cell death (in words): 1, 3 and 10 μg/ml, overnight; for Cytotoxic effect (Annexin V + PI staining, dead cells): 17-20 hr
Procedure: (§1) After a 17-20 hr incubation at 37° C., cells were stained with 0.3 μl of FITC-conjugated Annexin V (Strong Biotech Corp. Cat. No. AVK250) in 50 μl Annexin V binding buffer (Strong Biotech Corp. Cat. No. AVK250) at RT for 20 min. After wash, the cells were then stained with 0.3 μl of propidium iodide in 200 μl Annexin V binding buffer. Annexin V and Propidium Iodide were used as a joint indicator for cell death. The data were acquired with BD FACSCalibur based on an acquisition of 3,000-5,000 cells and analyzed with the Cell Quest software. The combined percentages of the Annexin V+/PI+, Annexin V+/PI− and Annexin V−/PI+populations were considered as dead cells.

CHO parental cells = assay: FACS binding of anti-EpCAM antibodies to CHO parental cells; set-up: species or system Chinese hamster; conditions: antibody 0.1 μg/ml; HPS at 300x dilution
Procedure: 1×10^5 CHO/EpCAM or CHO parental cells were seeded in each well of a v-bottomed 96-well plate and incubated with purified anti-EpCAM antibodies or mouse IgG control antibody 9E10 at concentration of 0.1 μg/ml. A 300× dilution of human cell hyper-immune serum (HPS 300×) was used as binding positive control for both cell lines here. After 1 hr incubation at 4° C., cells were washed twice with 200 μl FACS buffer (1×PBS containing 1% FBS), stained with 100 μl of 1 μg/ml goat-anti-mouse IgG-PE (Southern Biotech, Cat. No. 1032-09) in FACS buffer and then incubated at 4° C. for 30 min. Cells were washed thrice with FACS buffer and analyzed by flow cytometry (BD LSR, BD Life Sciences).

[2] = test system: Gastric cancer NCI-N87 cells; assay: Antibody cytotoxicity assay (Annexin V + PI), NCI-N87; format: cell-based; conditions: for Induction of cell death (in words): 1, 3 and 10 μg/ml, overnight; for Cytotoxic effect (Annexin V + PI staining, dead cells): 17-20 hr
Procedure: as §1

[3] = test system: Lung cancer NCI-H520 cells; assay: Antibody cytotoxicity assay (Annexin V + PI), NCI-H520; format: cell-based; conditions: for Induction of cell death (in words): 1, 3 and 10 μg/ml, overnight; for Cytotoxic effect (Annexin V + PI staining, dead cells): 17-20 hr
Procedure: as §1

[4] = test system: COLO 205 colon cancer cells; assay: Cytotoxicity of anti-EpCAM antibodies in combination with oxaliplatin in COLO 205; format: cell-based, human; conditions: 24 hr
Procedure: Oxaliplatin, combined with infusional administration of 2 other chemotherapy drugs, 5-fluorouracil/leucovorin (5-FU/LV), is now considered as one of the as first-line treatments for people with advanced carcinoma of the colon or rectum (André et al. (2004) N Engl J Med 350(23):2343-2351). To test the cytotoxicity of anti-EpCAM antibodies in the presence of oxaliplatin, 1×10^5 COLO 205 cells were seeded to each well of a 96-well plate, and then 0.03, 0.3 and 3 μg/ml of anti-EpCAM or control (9E10) mAbs in combination with oxaliplatin at concentration of 0, 0.01, 0.1, and 1 μg/ml diluted in the medium were added into the cells. After a 24-hr incubation at 37° C., the cells were stained with 0.3 μl of FITC-conjugated Annexin V (Strong Biotech Corp. Cat. No. AVK250) in 50 μl Annexin V binding buffer (Strong Biotech Corp. Cat. No. AVK250) at RT for 20 min. After wash, the cells were then stained with 0.3 μl of propidium iodide in 200 μl Annexin V binding buffer. Annexin V and Propidium Iodide were used as a joint indicator for measuring cell death. The data were acquired with BD FACSCalibur based on an acquisition of 3,000-5,000 cells and analyzed with the Cell Quest software. The combined percentages of the Annexin V+/PI+, Annexin V+/PI− and Annexin V−/PI+populations were considered as dead cells.

[5] = test system: Colorectal cancer DLD-1 cells; assay: Antibody cytotoxicity assay (Annexin V + PI), DLD-1; format: cell-based; conditions: for Induction of cell death (in words): 1, 3 and 10 μg/ml, overnight; for Cytotoxic effect (Annexin V + PI staining, dead cells): 17-20 hr
Procedure: as §1

[6] = test system: NCI-H358 lung cancer cells; assay: Cell death in NCI-H358 lung cancer cells (Annexin V + PI); format: cell-based, human; conditions: mAb 10 μg/ml, 17 hr; for % of Annexin V + PI staining (untreated background subtracted), Mean ± SEM: mean of 5 experiments
Procedure: 5×10^4 NCI-H358 cells were seeded to each well of a 96-well plate, and then 10 μg/ml of anti-EpCAM or control (9E10) mAbs diluted in the medium was added into the cells. After a 17-hr incubation at 37° C., the cells were stained with 0.3 μl of FITC-conjugated Annexin V (Strong Biotech Corp. Cat. No. AVK250) in 50 μl Annexin V binding buffer (Strong Biotech Corp. Cat. No. AVK250) at RT for 20 min. After wash, the cells were then stained with 0.3 μl of propidium iodide in 200 μl Annexin V binding buffer. Annexin V and Propidium Iodide were used as a joint indicator for measuring cell death. The data were acquired with BD FACSCalibur based on an acquisition of 3,000-5,000 cells and analyzed with the Cell Quest software. The combined percentages of the Annexin V+/PI+, Annexin V+/PI− and Annexin V−/PI+populations were considered as dead cells.

[7] = test system: Ovarian cancer NIH:OVCAR-3 cells; assay: Antibody cytotoxicity assay (Annexin V + PI), NIH:OVCAR-3; format: cell-based; conditions: for Induction of cell death (in words): 1, 3 and 10 μg/ml, overnight; for Cytotoxic effect (Annexin V + PI staining, dead cells): 17-20 hr
Procedure: as §1

[8] = mAb 0.03 μg/ml, oxaliplatin 0 μg/ml
[9] = mAb 0.3 μg/ml + oxaliplatin 1 μg/ml
[10] = mAb 0.3 μg/ml, oxaliplatin 0 μg/ml
[11] = mAb 3 μg/ml + oxaliplatin 0.01 μg/ml
[12] = mAb 3 μg/ml + oxaliplatin 1 μg/ml
[13] = mAb 3 μg/ml, oxaliplatin 0 μg/ml

Molecule | Induction of cell death (in words) [1] | Cytotoxic effect (Annexin V + PI staining, dead cells) ([1]; mAb 1.0 μg/ml) [%] | Cytotoxic effect (Annexin V + PI staining, dead cells) ([1]; mAb 3.0 μg/ml) [%] | Cytotoxic effect (Annexin V + PI staining, dead cells) ([1]; mAb 10 μg/ml) [%] | Binding (FACS, Mean fluorescence intensity (MFI)) CHO (CHO parental cells) | Induction of cell death (in words) [2] | Cytotoxic effect (Annexin V + PI staining, dead cells) ([2]; mAb 1.0 μg/ml) [%] | Cytotoxic effect (Annexin V + PI staining, dead cells) ([2]; mAb 3.0 μg/ml) [%] | Cytotoxic effect (Annexin V + PI staining, dead cells) ([2]; mAb 10 μg/ml) [%] | Induction of cell death (in words) [3] | Cytotoxic effect (Annexin V + PI staining, dead cells) ([3]; mAb 1.0 μg/ml) [%] | Cytotoxic effect (Annexin V + PI staining, dead cells) ([3]; mAb 3.0 μg/ml) [%] | Cytotoxic effect (Annexin V + PI staining, dead cells) ([3]; mAb 10 μg/ml) [%] | % of Annexin V + PI staining (untreated background subtracted) [4, 8] [%] | % of Annexin V + PI staining (untreated background subtracted) [4, 9] [%] | % of Annexin V + PI staining (untreated background subtracted) [4, 10] [%] | % of Annexin V + PI staining (untreated background subtracted) [4, 11] [%] | % of Annexin V + PI staining (untreated background subtracted) [4, 12] [%] | % of Annexin V + PI staining (untreated background subtracted) [4, 13] [%] | Induction of cell death (in words) [5] | other results
B1 | substantial cell death | 51 | 50 | 50 | 6 | substantial cell death | 57 | 57 | 57 | substantial cell death | 40 | 46 | 57 | −1 | 22 | 6 | 52 | 61 | 54 | substantial cell death | % of Annexin V + PI staining (untreated background subtracted) ([4]; mAb 0.03 μg/ml + oxaliplatin 0.01 μg/ml): −1%; % of Annexin V + PI staining (untreated background subtracted) ([4]; mAb 0.03 μg/ml + oxaliplatin 1 μg/ml): 5%; % of Annexin V + PI staining (untreated background subtracted) ([4]; mAb 3 μg/ml + oxaliplatin 0.1 μg/ml): 57%; Cytotoxic effect (Annexin V + PI staining, dead cells) ([5]; mAb 1.0 μg/ml): 65%; Cytotoxic effect (Annexin V + PI staining, dead cells) ([5]; mAb 3.0 μg/ml): 65%; Cytotoxic effect (Annexin V + PI staining, dead cells) ([5]; mAb 10 μg/ml): 61%; % of Annexin V + PI staining (untreated background subtracted) ([6]; Exp1): 32%; % of Annexin V + PI staining (untreated background subtracted) ([6]; Exp2): 30%; % of Annexin V + PI staining (untreated background subtracted) ([6]; Exp3): 40%; % of Annexin V + PI staining (untreated background subtracted) ([6]; Exp4): 39%; % of Annexin V + PI staining (untreated background subtracted) ([6]; Exp5): 37%; % of Annexin V + PI staining (untreated background subtracted), Mean ± SEM [6]: 35.6 ± 2.0%; Induction of cell death (in words) [7]: substantial cell death; Cytotoxic effect (Annexin V + PI staining, dead cells) ([7]; mAb 1.0 μg/ml): 53%; Cytotoxic effect (Annexin V + PI staining, dead cells) ([7]; mAb 3.0 μg/ml): 57%; Cytotoxic effect (Annexin V + PI staining, dead cells) ([7]; mAb 10 μg/ml): 59%
B2 | substantial cell death | 45 | 58 | 64 | 5 | substantial cell death | 50 | 60 | 60 | substantial cell death | 32 | 41 | 55 | 2 | 10 | 5 | 38 | 54 | 46 | substantial cell death | % of Annexin V + PI staining (untreated background subtracted) ([4]; mAb 0.03 μg/ml + oxaliplatin 0.1 μg/ml): 2%; % of Annexin V + PI staining (untreated background subtracted) ([4]; mAb 0.3 μg/ml + oxaliplatin 0.01 μg/ml): 4%; % of Annexin V + PI staining (untreated background subtracted) ([4]; mAb 0.3 μg/ml + oxaliplatin 0.1 μg/ml): 5%; Cytotoxic effect (Annexin V + PI staining, dead cells) ([5]; mAb 1.0 μg/ml): 28%; Cytotoxic effect (Annexin V + PI staining, dead cells) ([5]; mAb 3.0 μg/ml): 40%; Cytotoxic effect (Annexin V + PI staining, dead cells) ([5]; mAb 10 μg/ml): 60%; % of Annexin V + PI staining (untreated background subtracted) ([6]; Exp1): 46%; % of Annexin V + PI staining (untreated background subtracted) ([6]; Exp2): 42%; % of Annexin V + PI staining (untreated background subtracted) ([6]; Exp3): 48%; % of Annexin V + PI staining (untreated background subtracted) ([6]; Exp4): 47%; % of Annexin V + PI staining (untreated background subtracted) ([6]; Exp5): 42%; % of Annexin V + PI staining (untreated background subtracted), Mean ± SEM [6]: 45.0 ± 1.3%; Induction of cell death (in words) [7]: substantial cell death; Cytotoxic effect (Annexin V + PI staining, dead cells) ([7]; mAb 1.0 μg/ml): 40%; Cytotoxic effect (Annexin V + PI staining, dead cells) ([7]; mAb 3.0 μg/ml): 50%; Cytotoxic effect (Annexin V + PI staining, dead cells) ([7]; mAb 10 μg/ml): 52%
